Assay results from patent US20210238292A1 (VACCINEX, published 2021).
Read-outs that look alike come from different tables or passages of the source. Each block holds one binder with its values, some of them ahead of it.

Tests used:
[1] = target: T1, human CCR8 (C-C chemokine receptor type 8) expressed on cells (human, UniProt P51685 1-355); experiment: on-cell affinity, flow cytometry on 293T cells expressing human CCR8
T1 construct: also called HuCCR8

[2] = target: T2, cynomolgus monkey CCR8 expressed on cells (cynomolgus monkey, UniProt G7NYJ2 1-355); experiment: flow cytometry, CynoCCR8-293T cells, fold geomean over secondary alone
T2 construct: whole, on cells; also called cyno CCR8; CyCCR8

[3] = target: T3, mouse CCR8 expressed on 293T cells (mouse, UniProt P56484 1-353); experiment: flow cytometry, MoCCR8-293T cells, fold geomean over secondary alone
T3 construct: whole, on cells
T3 sequence (looked up): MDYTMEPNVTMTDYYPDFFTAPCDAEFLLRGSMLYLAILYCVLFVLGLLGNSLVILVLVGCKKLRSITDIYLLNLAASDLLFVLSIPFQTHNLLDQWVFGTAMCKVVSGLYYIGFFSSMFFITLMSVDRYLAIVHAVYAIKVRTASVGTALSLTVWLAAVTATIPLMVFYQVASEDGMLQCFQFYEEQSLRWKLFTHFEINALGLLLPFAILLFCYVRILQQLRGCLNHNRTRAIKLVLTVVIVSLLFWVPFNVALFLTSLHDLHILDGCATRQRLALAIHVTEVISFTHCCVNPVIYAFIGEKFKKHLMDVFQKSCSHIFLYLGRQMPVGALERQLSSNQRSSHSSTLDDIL

[4] = target: T2, cynomolgus monkey CCR8 expressed on …; experiment: on-cell affinity, flow cytometry on 293T cells expressing cyno CCR8
Human CCR8-ECD-Fc [5] = target: T4, Human CCR8-ECD-Fc (human); experiment: binding to HuCCR8-ECD-Fc protein, OD450-570 nm
T4 construct: also called HuCCR8-ECD-Fc; huCC8-ECD-Fc
T4 chain: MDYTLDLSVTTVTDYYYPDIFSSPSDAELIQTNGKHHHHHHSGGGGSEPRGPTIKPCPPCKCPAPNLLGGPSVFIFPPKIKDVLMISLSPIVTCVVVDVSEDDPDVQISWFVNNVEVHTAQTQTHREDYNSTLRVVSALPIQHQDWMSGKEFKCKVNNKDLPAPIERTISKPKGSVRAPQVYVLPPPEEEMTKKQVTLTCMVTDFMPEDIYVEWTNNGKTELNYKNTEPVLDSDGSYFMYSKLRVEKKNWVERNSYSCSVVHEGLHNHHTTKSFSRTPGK

Cynomolgus CCR8-ECD-Fc [6] = target: T5, Cynomolgus CCR8-ECD-Fc (cynomolgus monkey); experiment: binding to CyCCR8-ECD-Fc protein, OD450-570 nm
T5 construct: also called CyCCR8-ECD-Fc; Cynomolgus CCR8-Fc
T5 chain: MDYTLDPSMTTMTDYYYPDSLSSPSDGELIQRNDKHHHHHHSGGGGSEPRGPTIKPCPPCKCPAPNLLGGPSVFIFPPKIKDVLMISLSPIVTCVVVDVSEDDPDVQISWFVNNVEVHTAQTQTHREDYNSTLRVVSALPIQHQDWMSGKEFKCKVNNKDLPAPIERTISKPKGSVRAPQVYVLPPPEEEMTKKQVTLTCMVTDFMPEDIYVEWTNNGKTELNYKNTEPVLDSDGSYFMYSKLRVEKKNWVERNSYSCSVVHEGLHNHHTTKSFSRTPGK

Cynomolgus CCR8-ECD-Fc [7] = target: T5, Cynomolgus CCR8-ECD-Fc; experiment: binding to CyCCR8-ECD-Fc protein, OD450-570 nm
Human CCR8-ECD-Fc [8] = target: T4, Human CCR8-ECD-Fc; experiment: binding to HuCCR8-ECD-Fc protein, OD450-570 nm
[9] = target: T3, mouse CCR8 expressed on 293T cells; experiment: flow cytometry, MoCCR8-293T cells, fold geomean over secondary alone; remark: listed apart in the source
[10] = target: T2, cynomolgus monkey CCR8 expressed on …; experiment: on-cell affinity, flow cytometry on 293T cells expressing cyno CCR8; remark: listed apart in the source
Target sequence in this assay (G7NYJ2 entry or part of it): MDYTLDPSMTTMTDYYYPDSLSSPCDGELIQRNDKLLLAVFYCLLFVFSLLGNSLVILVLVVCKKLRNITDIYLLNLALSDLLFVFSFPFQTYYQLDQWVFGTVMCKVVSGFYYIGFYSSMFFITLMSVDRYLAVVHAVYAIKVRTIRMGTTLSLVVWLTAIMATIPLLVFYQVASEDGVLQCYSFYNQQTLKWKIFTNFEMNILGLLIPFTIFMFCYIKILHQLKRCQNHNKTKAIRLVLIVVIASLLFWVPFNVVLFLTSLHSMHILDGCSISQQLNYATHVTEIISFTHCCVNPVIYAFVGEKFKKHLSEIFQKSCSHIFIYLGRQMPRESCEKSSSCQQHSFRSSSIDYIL

[11] = target: T1, human CCR8 (C-C chemokine receptor type …); experiment: on-cell affinity, flow cytometry on 293T cells expressing human CCR8; remark: listed apart in the source
[12] = target: T3, mouse CCR8 expressed on 293T cells; experiment: flow cytometry, MoCCR8-293T cells, fold geomean over secondary alone; remark: listed apart in the source
[13] = target: T1, human CCR8 (C-C chemokine receptor type …); experiment: flow cytometry, HuCCR8-293T cells, fold geomean over secondary alone
Cynomolgus CCR8-ECD-Fc [14] = target: T5, Cynomolgus CCR8-ECD-Fc; experiment: binding to CynoCCR8-ECD-Fc protein, OD450-570nm
Human CCR8-ECD-Fc [15] = target: T4, Human CCR8-ECD-Fc; experiment: binding to HuCCR8-ECD-Fc protein, OD450-570nm
Human CCR8-ECD-Fc [16] = target: T4, Human CCR8-ECD-Fc; experiment: binding to HuCCR8-ECD-Fc protein, OD450-570 nm
Cynomolgus CCR8-ECD-Fc [17] = target: T5, Cynomolgus CCR8-ECD-Fc; experiment: binding to CyCCR8-ECD-Fc protein, OD450-570 nm
[18] = target: T3, mouse CCR8 expressed on 293T cells; experiment: flow cytometry, MoCCR8-293T cells, fold geomean over secondary alone; remark: listed apart in the source
Cynomolgus CCR8-ECD-Fc [19] = target: T5, Cynomolgus CCR8-ECD-Fc; experiment: binding to CyCCR8-ECD-huFc protein (so in the source), OD45-570nm (so in the source)
[20] = target: T3, mouse CCR8 expressed on 293T cells; experiment: flow cytometry, mouseCCR8-293T cells, fold geomean over secondary alone
[21] = target: T2, cynomolgus monkey CCR8 expressed on …; experiment: on-cell affinity, flow cytometry on 293T cells expressing cyno CCR8; remark: listed apart in the source
Target sequence in this assay (G7NYJ2 entry or part of it): as above

Human CCR8-ECD-Fc [22] = target: T4, Human CCR8-ECD-Fc; experiment: binding to HuCCR8-ECD-moFc protein (so in the source), OD45-570nm (so in the source)
[23] = target: T1, human CCR8 (C-C chemokine receptor type …); experiment: on-cell affinity, flow cytometry on 293T cells expressing human CCR8; remark: listed apart in the source
Cynomolgus CCR8-ECD-Fc [24] = target: T5, Cynomolgus CCR8-ECD-Fc; experiment: binding to CyCCR8-ECD-huFc protein (so in the source), OD45-570nm (so in the source)
Human CCR8-ECD-Fc [25] = target: T4, Human CCR8-ECD-Fc; experiment: binding to HuCCR8-ECD-moFc protein (so in the source), OD45-570nm (so in the source)
[26] = target: T3, mouse CCR8 expressed on 293T cells; experiment: flow cytometry, mouseCCR8-293T cells, fold geomean over secondary alone; remark: listed apart in the source

T1 sequence (P51685 whole entry): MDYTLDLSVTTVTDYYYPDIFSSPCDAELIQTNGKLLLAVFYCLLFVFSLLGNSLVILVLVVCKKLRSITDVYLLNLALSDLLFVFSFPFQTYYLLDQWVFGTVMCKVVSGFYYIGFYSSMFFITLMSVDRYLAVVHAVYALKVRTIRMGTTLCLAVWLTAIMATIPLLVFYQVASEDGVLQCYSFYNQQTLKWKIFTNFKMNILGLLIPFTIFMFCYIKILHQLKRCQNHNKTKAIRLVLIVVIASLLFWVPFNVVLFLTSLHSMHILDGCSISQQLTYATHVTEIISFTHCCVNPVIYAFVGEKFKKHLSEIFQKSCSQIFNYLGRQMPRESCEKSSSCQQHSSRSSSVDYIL

Kd [1]: 0.8 nM | EC50 (read off the curve) [2]: ~1 µg/mL | binding result [3]: no binding (tested: 10 ug/ml) | Kd [4]: 1.6 nM | binding result (Human CCR8-ECD-Fc [5]): binds | binding result (Cynomolgus CCR8-ECD-Fc [6]): binds
B1: anti-CCR8-2-2 (antibody, V domains shown)
VH: EVQLLESGGGLVQPGGSLRLSCAAGGFTFSAYTMNWVRQAPGKGLEWVSAISASGGRTYYADSVKGRFTISRDNSKNTLYLQMNSLRAEDTAVYYCARRFARGWFDPWGQGTLVT
VL: QSVLTQPPSVSAAPGQRVTISCSGSTSNIGNHYVSWYQQLPRAVPKLVIYDNDKRPSGISDRFSGSRSGTSATLDISGLQAGDEADYYCATWDYSLTAVVFGGGTKLTVL
notes: Heavy chain of anti-CCR8-2 (H23727) cross-paired with a shuffled lambda light chain; Human IgG

Kd [1]: 0.41 nM | binding result (Cynomolgus CCR8-ECD-Fc [7]): binds | binding result (Human CCR8-ECD-Fc [8]): binds | binding result [9]: no binding (tested: 10 ug/ml) | Kd [4]: 0.94 nM
B2: anti-CCR8-2 (antibody, V domains shown)
VH: EVQLLESGGGLVQPGGSLRLSCAAGGFTFSAYTMNWVRQAPGKGLEWVSAISASGGRTYYADSVKGRFTISRDNSKNTLYLQMNSLRAEDTAVYYCARRFARGWFDPWGQGTLVTVSS
VL: QSVLTQPPSVSAAPGQKVTISCSGSSSNIGNNYVSWYQQLPGTAPKLLIYDNNKRPSGIPDRFSGSKSGTSATLGITGLQTGDEADYYCGTWDSSLSAWVFGGGTKLT
notes: Cloned into mammalian expression vectors; human IgG; also called heavy chain H23727

Kd [10]: 4.5 nM | Kd [11]: 1.5 nM | binding result [12]: no binding (tested: 10 ug/ml) | EC50 (read off the curve) [13]: ~2 µg/mL | EC50 (read off the curve) (Cynomolgus CCR8-ECD-Fc [14]): ~0.04 µg/mL | EC50 (read off the curve) (Human CCR8-ECD-Fc [15]): ~0.04 µg/mL
B3: anti-CCR8-2-6 (antibody, V domains shown)
VH: EVQLVESGGGLVQPGRSLRLSCAASGFTFDDYAMHWVRQAPGKGLEWVSGISWNSGSIGYADSVKGRFTISRDNSKNSLYLQMNSLRAEDTALYYCARGRVSYRESLRFDYWGQGTLVT
VL: QSVLTQPPSVSAAPGQKVTISCSGSSSNIGNNYVSWYQQLPGTAPKLLIYDNNKRPSGIPDRFSGSKSGTSATLGITGLQTGDEADYYCGTWDSSLSAWVFGGGTKLT
notes: Human IgG

Kd [1]: 0.54 nM | binding result (Human CCR8-ECD-Fc [16]): binds | binding result (Cynomolgus CCR8-ECD-Fc [17]): binds | binding result [18]: no binding (tested: 10 ug/ml) | Kd [4]: 1.09 nM
B4: anti-CCR8-2-1 (antibody, V domains shown)
VH: EVQLLESGGGLVQPGGSLRLSCAARGFIFSGYTMLWVRQAPGKGLEWVSAITASGGRTYYADSVKGRFTISRDNSKNTLYLQMNSLRAEDTAVYYCARRFARGWFDPWGQGTLVTVSS
VL: QSVLTQPPSVSAAPGQKVTISCSGSSSNIGNNYVSWYQQLPGTAPKLLIYDNNKRPSGIPDRFSGSKSGTSATLGITGLQTGDEADYYCGTWDSSLSAWVFGGGTKLT
notes: Human IgG from a mammalian expression vector

binding result (Cynomolgus CCR8-ECD-Fc [19]): binds | binding result [20]: no binding (tested: 10 ug/ml) | Kd [21]: 35.9 nM | binding result (Human CCR8-ECD-Fc [22]): binds | Kd [23]: 0.28 nM
B5: anti-CCR8-1-4 (antibody, V domains shown)
VH: QVQLVQSGAEVKKPGASVKVSCKASGYTFTSYYMHWVRQAPGQGLEWMGIINPSGGSTSYAQKFQGRVTMTRDTSTSTVYMELSSLRSEDTAVYYCARGVGNGFRFDYWGQGTLVT
VL: QSALTQPASVSGSPGQSITISCSGTSSNIGKYNLVSWYQQHPGEAPTLLIYEATKRPSGVSNRFSGSKSGNTASLTISGLQAEDEADYICSSYAGSRVFVVFGGGTKLTVL
notes: Parental-1 heavy chain with a shuffled lambda light chain; Human IgG expressed in CHO cells

Kd [21]: 48.6 nM | binding result (Cynomolgus CCR8-ECD-Fc [24]): binds | binding result (Human CCR8-ECD-Fc [25]): binds | binding result [26]: no binding (tested: 10 ug/ml) | Kd [23]: 1.36 nM
B6: anti-CCR8-1-5 (antibody, V domains shown)
VH: QVQLVQSGAEVKKPGASVKVSCKASGYTFTSYYMHWVRQAPGQGLEWMGIINPSGGSTSYAQKFQGRVTMTRDTSTSTVYMELSSLRSEDTAVYYCARGVGNGFRFDYWGQGTLVT
VL: QSALTQPPSVSGSPGQSITISCSGTSSDVGSYNLVSWYQQEPGKAPKLIIYEVNKRPSGVSNRFSGSKSGNTASLTISGLQAEDEADYHCSSYAGSSTYVVFGGGTKLTVL
notes: as for B5
